The source of these data is article PMC6650801.

This test deals with EGFR–eGFP fusion protein (epidermal growth factor receptor fused to the F64L, S65T mutant of GFP) (UniProt P00533).

As for “murine EGF (epidermal growth factor) (from UniProt P01132 977-1029) (ligand)”, the half recovery time T1/2 of EGFR–eGFP fluorescence in stripe FRAP on F1-10 cells, before and 2.5 min after 50 nM EGF was 6.4 s.
